Molecular target: T1, His-tagged PprB
T1 chain: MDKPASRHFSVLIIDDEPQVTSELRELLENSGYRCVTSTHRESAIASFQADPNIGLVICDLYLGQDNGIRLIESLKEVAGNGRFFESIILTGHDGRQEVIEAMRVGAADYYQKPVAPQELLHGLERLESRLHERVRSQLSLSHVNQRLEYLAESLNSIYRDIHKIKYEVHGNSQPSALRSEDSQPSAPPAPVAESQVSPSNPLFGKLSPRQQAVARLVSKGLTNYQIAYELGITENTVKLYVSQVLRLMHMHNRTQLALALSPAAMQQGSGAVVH

B1: His-tagged PprA (protein)
chain: MFEFSRSSSAEAERPEPFSQEGPALWSASLRSWDLCFEMDEQDRVIRVGGRQAYRLQCAHGLGEQPRPFAEYLERRAPGAPTLAGLRRGERLDLTLRSDAAAPLTCRFQPMQPLDGLGRSLLLGMDISDLNWQSDSQQHQLQSLSLGKLILSRLRHVSHGHLAEAVQEILESLSGAFQMQAIALLLGDGKGFCTVFASHVRPGSDSLLRPPLQLADDDLREGAGARLLRRGEGASTLLRQIGEDALYLVPATMRGGRLGALLVRPMSLEQLAQGPAPQDWQYLAELLANQVADRCELHEQHDSSRKLGLLQEMIGGGWWRYWAEQELFELAPALHDSLGLTGEYRRVPLEHLQGLLQPADADELGLRLRASLRSGQALAQDLCLRQPDSRGERRWLRIEGRPLGRGSALGLSGVLLDISEGRRQEERAQAAHARLRSLIDSAPVVIYVQRVEQGHLVPEFYSESASNLLGLDLQGQSWQALAERVHPDDLEAFFARGRELLREGRVKTRYRLADGQGNWHWLYDEAKLLRDAQGLPSEAVGLWLDVTEQHLAAQRIAESEERYRVLVEDSPALICRYTADLVLTYVNRTFADSLATSPERLVGRRLDEWLAAEDASALRARLLGSPREGASEVPELRFNLPGQRFLWLVWAERPLFDARGELCEVQAVGRDNTPVRRAQQQLAQGAKMASLGEMVSGLAHEVKQPLHVLRMTLFNMRQRMNSVGLDGDYLGEKLERMDAQVLRVDRLVSHLGVFSRKSALEALPFDPYAAFEGALGLLGEGLRQHAIEVECPAPTQRMVVRGQADQLEQVIINLLANARDALLGNPGLASRRVRLEQVACREPGWVELHVHDNGGGIEPLLLERIFEPFFTTKAEGKGTGLGLSVSHDLVRNMGGSLTAANQGEGALFVVRLPLAAPAEAGG
in vitro phosphorylation assay ([gamma-32P]ATP, SDS-PAGE, autoradiography): PprA was phosphorylated; PprB was not. Notably, however, when PprA was mixed with PprB, PprB became highly phosphorylated.

Source: patent publication US20030232412
